B1: Pistol ribozyme (parent)
chain: GGGUCGUUGUUCCAUAAUCGCGUGGAUAUGGCACGCAAGUUUCUACCGGGCACCGUAAAUGUCCGACUGGAGCCGUUCGGGCGGCUAUAAACAGACCUCAGGCCCGAAGCGUGGCGGCACCUGCCGCCGGUGGUAAAAAAGAUCGGAAGAGCACACGUCU

Variants of: B1
Test: aptazyme ON/OFF ratio, guanine; higher = stronger switching; co-transcriptional cleavage with and without guanine

Row | Variant | aptazyme ON/OFF ratio
1 | U7G U8C G9C U10C C12A C13G | 1.1
2 | U7G U8C G9C U10C C12A C13U | 1.04
3 | U7G U8C G9C U10C C12A C13A | 1.08
4 | U7G U8C G9C U10G C12U C13G | 1.08
5 | U7G U8C G9C U10G C12U C13A | 1.11
6 | U7G U8C G9C U10G C12U C13U | 1.14
7 | U7G U8C G9C U10C C12G | 1.1
8 | U7G U8C G9C U10C C12A | 1.13
9 | U7G U8C G9C U10C C12U | 1.16
10 | U7G U8C G9C U10G C12A C13A | 1.1
11 | U7G U8C G9C U10G C12A C13G | 1.1
12 | U7G U8C G9C U10G C12A C13U | 1.13
13 | U7G U8C G9C U11C C12A | 1.9
14 | U7G U8C G9C U11C C12G | 1.34
15 | U7G U8C G9C U11C C12U | 1.78
16 | U7G U8C G9C U11A C12A C13U | 1.13
17 | U7G U8C G9C U11A C12A C13A | 1.11
18 | U7G U8C G9C U11A C12A C13G | 1.14
19 | U7G U8C G9C U11G C13A | 1.24
20 | U7G U8C G9C U11G C13G | 1.17
21 | U7G U8C G9C U11G C13U | 1.25

Row | Variant | aptazyme ON/OFF ratio
22 | U7G U8C G9C U10G U11C C12U C13U | 1.4
23 | U7G U8C G9C U10G U11C C12U C13G | 1.32
24 | U7G U8C G9C U10G U11C C12U C13A | 1.26
25 | U7G U8C G9A U11A C12U C13A | 1.09
26 | U7G U8C G9A U11A C12U C13G | 1.08
27 | U7G U8C G9A U11A C12U C13U | 1.05
28 | U7G U8C G9A U11A C12G C13U | 1.1
29 | U7G U8C G9A U11A C12G C13G | 1.06
30 | U7G U8C G9A U11A C12G C13A | 1.05
31 | U7G U8C G9C U11A C12G C13G | 1.16
32 | U7G U8C G9C U11A C12G C13A | 1.13
33 | U7G U8C G9C U11A C12G C13U | 1.1
34 | U7G U8C G9A U10G U11C C13G | 1.07
35 | U7G U8C G9A U10G U11C C13A | 1.14
36 | U7G U8C G9A U10G U11C C13U | 1.05
37 | U7G U8C G9C U10C U11G C13G | 1.14
38 | U7G U8C G9C U10C U11G C13U | 1.07
39 | U7G U8C G9C U10C U11G C13A | 1.07
40 | U7G U8C G9C U10A U11C C12U | 1.32
41 | U7G U8C G9C U10A U11C C12G | 1.26
42 | U7G U8C G9C U10A U11C C12A | 1.33

Row | Variant | aptazyme ON/OFF ratio
43 | U7G U8C G9C U10C U11C C12G C13U | 1.04
44 | U7G U8C G9C U10C U11C C12G C13G | 1.04
45 | U7G U8C G9C U10C U11C C12G C13A | 1.09
46 | U7G U8C G9C U10G U11A | 1.11
47 | U7G U8C G9C U10G U11G | 1.17
48 | U7G U8C G9C U10G U11C | 1.15
49 | U7G U8C G9C U10C U11A C12A | 1.06
50 | U7G U8C G9C U10C U11A C12G | 1.11
51 | U7G U8C G9C U10C U11A C12U | 1.06
52 | U7G U8C G9C U10G C13A | 1.3
53 | U7G U8C G9C U10G C13U | 1.33
54 | U7G U8C G9C U10G C13G | 1.26
55 | U7G U8C G9C U10G U11G C12G C13G | 1.08
56 | U7G U8C G9C U10G U11G C12G C13U | 1.09
57 | U7G U8C G9C U10G U11G C12G C13A | 1.06
58 | U7G U8C G9C U10G U11C C13U | 1.34
59 | U7G U8C G9C U10G U11C C13G | 1.36
60 | U7G U8C G9C U10G U11C C13A | 1.15
61 | U7G U8C G9C U10G U11G C12U | 1.06
62 | U7G U8C G9C U10G U11G C12A | 1.17
63 | U7G U8C G9C U10G U11G C12G | 1.13

Row | Variant | aptazyme ON/OFF ratio
64 | U7G U8C G9C U10C U11C C12G | 1.06
65 | U7G U8C G9C U10C U11C C12A | 1.05
66 | U7G U8C G9C U10C U11C C12U | 1.02
67 | U7G U8C G9C U11G | 1.33
68 | U7G U8C G9C U11A | 2.39
69 | U7G U8C G9C U11C | 1.87
70 | U7G U8C G9C U10C U11C C12A C13A | 1.05
71 | U7G U8C G9C U10C U11C C12A C13G | 1.21
72 | U7G U8C G9C U10C U11C C12A C13U | 1.05
73 | U7G U8C G9C U10C C12U C13G | 1.13
74 | U7G U8C G9C U10C C12U C13A | 1.07
75 | U7G U8C G9C U10C C12U C13U | 1.04
76 | U7G U8C G9A U11C C12A C13U | 1.5
77 | U7G U8C G9A U11C C12A C13A | 1.11
78 | U7G U8C G9A U11C C12A C13G | 1.17
79 | U7G U8C G9C U10A U11G C12G C13U | 1.1
80 | U7G U8C G9C U10A U11G C12G C13A | 1.08
81 | U7G U8C G9C U10A U11G C12G C13G | 1.12
82 | U7G U8C G9C U11G C12U C13U | 1.37
83 | U7G U8C G9C U11G C12U C13G | 1.33
